In paper PMC5622162, “PLPP/CIN Regulates Seizure Activity by the Differential Modulation of Calsenilin Binding to GluN1 and Kv4.2 in Mice” (Frontiers in Molecular Neuroscience, 2017):

Molecular target: T1, calsenilin (CSEN), endogenous in mouse hippocampus or brain (mouse (endogenous in hippocampus), UniProt Q9QXT8 1-256)
T1 construct: calsenilin (CSEN, DREAM, KChIP3), endogenous mouse protein; a mixture of phosphorylated and dephosphorylated forms in the lysate; The state of phosphorylation differs with genotype and treatment; also called pCSEN; DREAM; source: endogenous, mouse hippocampus lysate (RIPA); crude extracts of PLPP/CIN-/- mouse brain
T1 sequence (looked up): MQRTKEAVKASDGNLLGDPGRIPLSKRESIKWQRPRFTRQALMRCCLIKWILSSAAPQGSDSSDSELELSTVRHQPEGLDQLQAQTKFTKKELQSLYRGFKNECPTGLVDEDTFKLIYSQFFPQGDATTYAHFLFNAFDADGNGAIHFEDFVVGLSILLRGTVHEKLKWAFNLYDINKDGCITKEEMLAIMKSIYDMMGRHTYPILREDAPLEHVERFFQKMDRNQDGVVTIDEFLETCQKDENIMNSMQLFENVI
Assay: co-IP; in vitro: recombinant PLPP/CIN (10 ng/ul) added to crude extracts of PLPP/CIN^-/- mouse brain at 30°C for 1 h; co-precipitation with endogenous CSEN and western blot
Details: one partner purified

binding of CSEN with CK1 left in the presence of PLPP/CIN, fold of vehicle: 0.68 fold of vehicle level
B1: recombinant human pyridoxal-5'-phosphate phosphatase/chronophin (PLPP/CIN) (enzyme, UniProt Q96GD0 1-296, looked up)
chain: MARCERLRGAALRDVLGRAQGVLFDCDGVLWNGERAVPGAPELLERLARAGKAALFVSNNSRRARPELALRFARLGFGGLRAEQLFSSALCAARLLRQRLPGPPDAPGAVFVLGGEGLRAELRAAGLRLAGDPSAGDGAAPRVRAVLVGYDEHFSFAKLREACAHLRDPECLLVATDRDPWHPLSDGSRTPGTGSLAAAVETASGRQALVVGKPSPYMFECITENFSIDPARTLMVGDRLETDILFGHRCGMTTVLTLTGVSRLEEAQAYLAAGQHDLVPHYYVESIADLTEGLED
notes: pyridoxal-5'-phosphate phosphatase/chronophin (PLPP/CIN), human, recombinant protein from Abcam; the words 'full-length recombinant human' stand before CSEN and are read as holding for PLPP/CIN too; source: bought: Abcam (recombinant)
